Measured values taken from doi:10.1101/2020.04.03.023861 (bioRxiv, 2020).

Biological target: the molecule itself
Experiment: detergent-resistant band of doubled size on SDS-PAGE and western blot

B1: TMEM70-FLAG (natural protein, human, UniProt Q9BUB7 82-260, looked up)
chain: LNTPSDKSEDGRLIYTGNMARAVFGVKCFSYSTSLIGLTFLPYIFTQNNAISESVPLPIQIIFYGIMGSFTVITPVLLHFITKGYVIRLYHEATTDTYKAITYNAMLAETSTVFHQNDVKIPDAKHVFTTFYAKTKSLLVNPVLFPNREDYIHLMGYDKEEFILYMEETSEEKRHKDDK
stoichiometry N: 2
